18 substances from patent EP1073891B1, “METHOD OF PREDICTING RECEPTOR MODULATING ACTIVITY” (Duke University, priority 1998, dated 1999) can be followed below.

The target of one experiment is T1, ERα (Homo sapiens, UniProt P03372).
T1 sequence (P03372 1-595): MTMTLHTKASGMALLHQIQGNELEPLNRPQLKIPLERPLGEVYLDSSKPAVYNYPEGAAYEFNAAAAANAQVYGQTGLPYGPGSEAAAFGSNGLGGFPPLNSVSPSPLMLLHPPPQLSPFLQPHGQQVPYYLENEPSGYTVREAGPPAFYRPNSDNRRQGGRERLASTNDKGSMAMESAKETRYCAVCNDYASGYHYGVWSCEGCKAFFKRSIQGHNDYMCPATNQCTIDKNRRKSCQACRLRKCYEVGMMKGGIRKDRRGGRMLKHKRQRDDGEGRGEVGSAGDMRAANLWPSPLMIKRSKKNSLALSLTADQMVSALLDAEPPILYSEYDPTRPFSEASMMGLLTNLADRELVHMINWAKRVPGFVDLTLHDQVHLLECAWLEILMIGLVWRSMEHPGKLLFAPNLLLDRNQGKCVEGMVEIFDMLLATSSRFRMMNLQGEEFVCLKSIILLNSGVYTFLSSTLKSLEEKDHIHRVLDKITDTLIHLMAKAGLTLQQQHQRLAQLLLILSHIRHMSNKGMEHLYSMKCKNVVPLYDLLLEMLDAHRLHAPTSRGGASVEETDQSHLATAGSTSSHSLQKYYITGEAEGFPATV
Description: Phage ELISA / fingerprint on ER immobilized on biotinylated ERE (Examples 2.3-2.5). The class given is binding. The arrangement: purchased PanVera Corporation, Madison, WI; key to binding activity, ERα and buffer / binding activity, ERα and estradiol / binding activity, ERα and tamoxifen / binding of peptide, Class Specific Fingerprint on ERα: semiquantitative scale of 0 to 7+; 1+: semiquantitative scale of 0 to 7+; 2+: semiquantitative scale of 0 to 7+; 3+: semiquantitative scale of 0 to 7+; 4+: semiquantitative scale of 0 to 7+; 5+: semiquantitative scale of 0 to 7+; 6+: semiquantitative scale of 0 to 7+; semiquantitative scale of 0 to 7+. As to conditions: for binding activity, ERα and estradiol: ERα and estradiol (1 µM); for binding activity, ERα and tamoxifen: ERα and tamoxifen (4-OH tamoxifen, 1 µM).

The target of the next experiment is ERβ (Homo sapiens, UniProt Q92731). Described as above. Details: purchased PanVera Corporation, Madison, WI; key: semiquantitative scale of 0 to 7+; 1+: semiquantitative scale of 0 to 7+; 2+: semiquantitative scale of 0 to 7+; 3+: semiquantitative scale of 0 to 7+; 4+: semiquantitative scale of 0 to 7+; 5+: semiquantitative scale of 0 to 7+; 6+: semiquantitative scale of 0 to 7+; semiquantitative scale of 0 to 7+. The class given is binding. As to conditions: for binding activity, ERβ and Estradiol: ERβ and Estradiol (1 µM); for binding activity, ERβ and tamoxifen: ERβ and tamoxifen (4-OH tamoxifen, 1 µM).
ERβ, sequence (Q92731 whole entry): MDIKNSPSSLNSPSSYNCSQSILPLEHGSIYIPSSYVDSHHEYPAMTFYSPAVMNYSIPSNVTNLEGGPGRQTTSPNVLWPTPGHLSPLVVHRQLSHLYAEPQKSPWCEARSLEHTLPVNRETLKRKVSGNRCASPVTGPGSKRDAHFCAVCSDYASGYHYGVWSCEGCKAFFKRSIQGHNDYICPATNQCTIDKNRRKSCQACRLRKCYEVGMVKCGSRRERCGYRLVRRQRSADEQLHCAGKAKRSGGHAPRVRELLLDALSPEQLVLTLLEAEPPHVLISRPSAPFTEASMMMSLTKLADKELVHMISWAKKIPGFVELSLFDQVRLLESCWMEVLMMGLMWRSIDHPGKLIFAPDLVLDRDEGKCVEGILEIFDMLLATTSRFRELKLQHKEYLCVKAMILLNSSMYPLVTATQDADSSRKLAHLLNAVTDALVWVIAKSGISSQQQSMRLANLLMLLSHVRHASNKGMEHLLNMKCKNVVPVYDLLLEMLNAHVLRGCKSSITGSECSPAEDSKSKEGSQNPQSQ

Setting [1] is: 4-OH Tamoxifen present during binding.
[2] abbreviates: 16a-OH Estrone present during binding.
Setting [3] is: Clomiphene present during binding.
The mark [4] stands for this setting: Estradiol present during binding.
[5] abbreviates: ICI 182,780 present during binding.
[6] abbreviates: Nafoxidine present during binding.
[7] abbreviates: Premarin present during binding.
The mark [8] stands for this setting: Progesterone present during binding.
[9] abbreviates: Raloxifene present during binding.

Values joined by “and” are separate entries in the source; they are usually repeats but may differ in a detail not shown here. Equal entries are not always repeated.

As for HSWLGPWRLSSIDLGG [Peptide 24b-β], in the experiment with ERα, the “binding activity, ERα and buffer” value was 2+; the “binding activity, ERα and estradiol” value is listed as 2+; the “binding activity, ERα and tamoxifen” value is on record as 3+. In addition, in the experiment with ERβ, the “binding activity, ERβ and Estradiol” value is on record as 7+; the “binding activity, ERβ and buffer” value is reported as 7+; the “binding activity, ERβ and tamoxifen” value is 7+.
As to HSYSSHPLLLSYLWGG [Peptide 23b-β], in the experiment with ERα, the “binding activity, ERα and buffer” value is 3+; the “binding activity, ERα and estradiol” value was 6+ and 3+; the “binding activity, ERα and tamoxifen” value is recorded as 3+. Also, in the experiment with ERβ, the “binding activity, ERβ and Estradiol” value is 7+ and 6+; the “binding activity, ERβ and buffer” value is reported as 7+; the “binding activity, ERβ and tamoxifen” value is 3+ and 7+.
On to “S A A P R T I S H Y L M G G (SAAPRTISHYLMGG) [#48 ER]”, for which the “binding of peptide, Class Specific Fingerprint on ERα” value (“binding of peptide … on ERα” for short) with ERα (setting [1]) was 1+; in the experiment with ERα (setting [2]), 2+; with ERα (setting [3]), 1+; with ERα (DES present during binding) it was 2+; with ERα (setting [4]) it was 2+; with ERα (Estriol present during binding), 4+. The “binding of peptide … on ERα” value with ERα (setting [5]) was 1+; in the experiment with ERα (setting [6]) it was 1+; with ERα (setting [7]), 2+; in the experiment with ERα (setting [8]), 6+; with ERα (setting [9]) it was 1+; in the experiment with ERα (buffer present during binding) it was 7+. The “binding of peptide, Class Specific Fingerprint on ERβ” value in the experiment with ERβ (setting [1]) is on record as 1+; with ERβ (setting [2]), 3+; in the experiment with ERβ (setting [3]), 1+; with ERβ (DES present during binding) it was 3+; with ERβ (setting [4]), 2+; with ERβ (Estriol present during binding), 6+. The “binding of peptide, Class Specific Fingerprint on ERβ” value with ERβ (setting [5]) is reported as 2+; with ERβ (setting [6]), 4+; in the experiment with ERβ (setting [7]), 4+; in the experiment with ERβ (setting [8]), 6+; with ERβ (setting [9]) it was 4+; in the experiment with ERβ (buffer present during binding), 7+.
For “S R T W E S P L G T W E W S R (SRTWESPLGTWEWSR) [#13 ER]”, the “binding of peptide … on ERα” value with ERα (setting [1]) is listed as 6+; in the experiment with ERα (setting [2]), 2+; with ERα (setting [3]) it was 5+; with ERα (DES present during binding), 3+; in the experiment with ERα (setting [4]), 2+; with ERα (Estriol present during binding), 2+. Moreover, the “binding of peptide … on ERα” value with ERα (setting [5]) is on record as 2+; with ERα (setting [6]) it was 2+; in the experiment with ERα (setting [7]) it was 2+; in the experiment with ERα (setting [8]) it was 4+; in the experiment with ERα (setting [9]) it was 2+; in the experiment with ERα (buffer present during binding), 5+.
With SRDWRSGFLYELLSR [Peptide 4E-β], in the experiment with ERα, the “binding activity, ERα and buffer” value is given as 6+; the “binding activity, ERα and estradiol” value was 5+; the “binding activity, ERα and tamoxifen” value is 6+. Besides, in the experiment with ERβ, the “binding activity, ERβ and Estradiol” value is reported as 7+; the “binding activity, ERβ and buffer” value is on record as 5+; the “binding activity, ERβ and tamoxifen” value was 3+.
Turning to SRECVGGWCLAELSR [Peptide 18b-β], in the experiment with ERα, the “binding activity, ERα and buffer” value is 2+; the “binding activity, ERα and estradiol” value is on record as 2+; the “binding activity, ERα and tamoxifen” value is recorded as 2+. Moreover, in the experiment with ERβ, the “binding activity, ERβ and Estradiol” value was 7+; the “binding activity, ERβ and buffer” value is recorded as 7+; the “binding activity, ERβ and tamoxifen” value was 7+.
Turning to SREGLLMRLLIGDSR [Peptide 14E-β], in the experiment with ERα, the “binding activity, ERα and buffer” value is 5+; the “binding activity, ERα and estradiol” value is listed as 7+; the “binding activity, ERα and tamoxifen” value was 5+. In addition, in the experiment with ERβ, the “binding activity, ERβ and Estradiol” value is on record as 7+; the “binding activity, ERβ and buffer” value is on record as 5+; the “binding activity, ERβ and tamoxifen” value is reported as 2+.
Regarding SREGWMGPWRLADSR [Peptide 12t-β], in the experiment with ERα, the “binding activity, ERα and estradiol” value is 1+; the “binding activity, ERα and tamoxifen” value is given as 1+. In the experiment with ERβ, the “binding activity, ERβ and Estradiol” value is on record as 7+; the “binding activity, ERβ and buffer” value is on record as 7+; the “binding activity, ERβ and tamoxifen” value was 7+.
As for SREWEDGFGGRWLSR [Peptide 4t-β], in the experiment with ERα, the “binding activity, ERα and buffer” value was 2+; the “binding activity, ERα and estradiol” value is recorded as 2+; the “binding activity, ERα and tamoxifen” value is 3+. In the experiment with ERβ, the “binding activity, ERβ and Estradiol” value was 7+; the “binding activity, ERβ and buffer” value was 7+; the “binding activity, ERβ and tamoxifen” value was 7+.
As to SRHGILWDLLQGDSR [Peptide 2E-β], in the experiment with ERα, the “binding activity, ERα and buffer” value is listed as 6+; the “binding activity, ERα and estradiol” value was 7+; the “binding activity, ERα and tamoxifen” value was 5+. Further, in the experiment with ERβ, the “binding activity, ERβ and Estradiol” value is recorded as 7+; the “binding activity, ERβ and buffer” value is recorded as 4+; the “binding activity, ERβ and tamoxifen” value is reported as 2+.
As to SRLEDLLRGDSKPQSR [Peptide 7E-β], in the experiment with ERα, the “binding activity, ERα and buffer” value is reported as 4+; the “binding activity, ERα and estradiol” value is on record as 6+; the “binding activity, ERα and tamoxifen” value is 3+. Moreover, in the experiment with ERβ, the “binding activity, ERβ and Estradiol” value was 6+; the “binding activity, ERβ and buffer” value is recorded as 5+; the “binding activity, ERβ and tamoxifen” value is 1+.
Consider SRLEELLRVGVLTSR [Peptide 6E-β], for which, in the experiment with ERα, the “binding activity, ERα and buffer” value is reported as 3+; the “binding activity, ERα and estradiol” value is on record as 5+; the “binding activity, ERα and tamoxifen” value was 3+. Also, in the experiment with ERβ, the “binding activity, ERβ and Estradiol” value is 7+; the “binding activity, ERβ and buffer” value was 3+; the “binding activity, ERβ and tamoxifen” value is reported as 1+.
Consider SRLHCLLDSSYCSSR [Peptide 1b-β], for which, in the experiment with ERα, the “binding activity, ERα and buffer” value was 4+; the “binding activity, ERα and estradiol” value was 7+; the “binding activity, ERα and tamoxifen” value is 3+. Also, in the experiment with ERβ, the “binding activity, ERβ and Estradiol” value is 7+; the “binding activity, ERβ and buffer” value was 7+; the “binding activity, ERβ and tamoxifen” value is on record as 2+.
Turning to SRLHDLLLRDESPSR [Peptide 3E-β], in the experiment with ERα, the “binding activity, ERα and buffer” value was 4+; the “binding activity, ERα and estradiol” value is recorded as 5+; the “binding activity, ERα and tamoxifen” value is given as 4+. For the same substance, in the experiment with ERβ, the “binding activity, ERβ and Estradiol” value is listed as 6+; the “binding activity, ERβ and buffer” value is given as 3+; the “binding activity, ERβ and tamoxifen” value is 1+.
For SRLNGVFCHDSSDLWVCSR [Peptide 18t-β], in the experiment with ERα, the “binding activity, ERα and buffer” value was 7+; the “binding activity, ERα and estradiol” value is 6+; the “binding activity, ERα and tamoxifen” value is recorded as 7+. Also, in the experiment with ERβ, the “binding activity, ERβ and Estradiol” value is 3+; the “binding activity, ERβ and buffer” value is on record as 6+; the “binding activity, ERβ and tamoxifen” value is 7+.
As for SRLPPSVFSMCGSEVCLSR [Peptide 9t-β], in the experiment with ERα, the “binding activity, ERα and buffer” value is recorded as 3+; the “binding activity, ERα and estradiol” value was 3+; the “binding activity, ERα and tamoxifen” value was 6+. In the experiment with ERβ, the “binding activity, ERβ and Estradiol” value is recorded as 2+; the “binding activity, ERβ and buffer” value is listed as 3+; the “binding activity, ERβ and tamoxifen” value was 7+.
For SRMFQVCGDEVCLRSR [Peptide 16t-β], in the experiment with ERα, the “binding activity, ERα and buffer” value is on record as 7+; the “binding activity, ERα and estradiol” value is reported as 6+; the “binding activity, ERα and tamoxifen” value is on record as 7+. For the same substance, in the experiment with ERβ, the “binding activity, ERβ and Estradiol” value is on record as 5+; the “binding activity, ERβ and buffer” value is 7+; the “binding activity, ERβ and tamoxifen” value was 7+.
In the case of SRNECIGPWCLTISR [Peptide 13t-β], in the experiment with ERα, the “binding activity, ERα and buffer” value is listed as 3+; the “binding activity, ERα and estradiol” value is listed as 2+; the “binding activity, ERα and tamoxifen” value is recorded as 4+. Further, in the experiment with ERβ, the “binding activity, ERβ and Estradiol” value was 7+; the “binding activity, ERβ and buffer” value is 7+; the “binding activity, ERβ and tamoxifen” value is reported as 7+.
